One molecule from publication PMC9872726 (Nature cell biology, 2022) can be followed below.

For the test, the target named is HSPB1 wild-type (human, UniProt P04792 1-205). As to the kind of experiment: NMR titration.
Chain of HSPB1 wild-type (P04792 whole entry): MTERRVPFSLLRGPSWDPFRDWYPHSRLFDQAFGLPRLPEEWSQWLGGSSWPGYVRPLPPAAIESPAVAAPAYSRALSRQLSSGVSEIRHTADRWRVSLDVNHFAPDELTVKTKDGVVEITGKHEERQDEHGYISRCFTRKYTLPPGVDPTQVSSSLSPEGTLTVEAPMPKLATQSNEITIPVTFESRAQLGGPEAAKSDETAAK

B1: TDP-43 LCD (domain or fragment, UniProt Q13148 274-414, looked up)
chain: GRFGGNPGGFGNQGGFGNSRGGGAGLGNNQGSNMGGGMNFGAFSINPAMMAAAQAALQSSWGMMGMLASQQNQSGPSGNNQNQGNMQREPNQAFGSGNNSYSGSNSGAAIGWGSASNAGSGSGFNGGFGSSMDSKSSGWGM
As for B1, the binding result is given as “binds”.
